Experimental findings from US20120301468A1, “ANTI-MN ANTIBODIES AND METHODS OF USING SAME” (BAYER HEALTHCARE LLC, priority 2005, published 2012) are described below.

The target in one data set is MN (Homo sapiens, UniProt Q16790). Put plainly: Immunoprecipitation of biotinylated cell surface proteins. It counts as binding. Also noted: incubated with cell lysates of MN+ (Pc3 mm2) and MN− (DLD-1) cell lines that had been selectively labeled with biotin; endogenous in cells; host or cells: PC-3 mm2 (MN+); DLD-1 as the MN- control. As to conditions: biotin-labeled lysates of MN+ (Pc3 mm2) and MN− (DLD-1) cell lines. As for the experimental part:
To further explore specificity, various candidate antibodies including the antibody portion of 3ee9/MMAE (3ee9) and the reference antibody G250 were incubated with cell lysates of MN+ (Pc3 mm2) and MN− (DLD-1) cell lines that had been selectively labeled with biotin. Complexes between the antibodies and cellular proteins were immuno-precipitated and the co-precipitated antigens visualized using immunoblots developed with enzyme-linked streptavidin.

For data set [1], the system named is MN-expressing PC3 mm2 cells. Put plainly: In vitro cytotoxicity, PC3 mm2.
A further data set has as its system MN-negative DLD cells. Put plainly: FACS cell binding, DLD cells. It counts as cell-based. Here is the method:
(§1) Cells may be assayed for MN expression as a diagnostic tool. Adherent MN-expressing PC-3 mm2 cells and non-MN expressing DLD1 cells were detached from their flasks with 1:10 trypsin/Versene in PBS solution for 5 to 10 minutes. Cells were spun down (1000 rpm, 5 minutes), washed once with ice cold RPMI 10% FBS, and resuspended in ice-cold staining buffer (Ca^+ Mg^+-free PBS, 2% BSA, and 0.05% sodium azide) at 6×10^6 cells/ml. Primary antibody, human anti-MN IgG1, or control human IgG1 antibody at 25 μg/mL were incubated with 6×10^5 cells on ice for 1 hour. The unbound antibody was washed from the cells with the ice-cold staining buffer. The cells were fixed with 2% formaldehyde in PBS for 10 minutes, then washed twice with staining buffer. The cell pellet was resuspended in 100 μl ice cold staining buffer containing anti-human Alexa fluor 488 secondary antibody (final conc. 1:200, Molecular Probes/Invitrogen, Carlsbad, Calif.), and incubated on ice for 1 hour. The unbound antibody was washed from the cells two times with flow buffer (PBS containing 2% BSA), and the cells were resuspended in 1 mL flow buffer. FACS analysis of the resuspended cells was performed on a […] FACS Caliber instrument.
The MN antibody G250, a humanized IgG1 antibody, (Wilex) was used as a reference throughout the in vitro studies.

For a further data set, the system named is MN+ (PC3 mm2) cells. Put plainly: FACS cell binding, PC3 mm2 cells. It counts as cell-based, human. The conditions noted are these: MN+ cells (PC3 mm2, FIGS. 10b, 10c). As for the experimental part: as §1
For data set [2], the system named is adhesion of MaTu cells to MN-coated wells. Put plainly: Cell adhesion assay. In kind it is cell-based, human. As to conditions: 100 μg antibody; 5000 MaTu cells. Here is the method: Fifty (50) μL of a 1 μg/mL solution of purified MN in PBS was adsorbed onto a non-treated 96-well plate overnight at 4° C. The solution was removed, and the wells rinsed 3× with PBS. The wells were blocked for 1 hour with 200 μL 50% FBS in RPMI1640 media. The wells were then treated with 100 μg 1e4 anti-MN antibody in 1% BSA in PBS, control IgG in 1% BSA in PBS or 1% BSA in PBS. After washing with PBS, 5000 MaTu cells (MN+ cells) were added to the wells and the plate incubated overnight at 37° C. at 5% CO2. The ability of anti-MN antibodies to block adhesion of MaTu cells to MN-coated wells was assessed after washing with PBS.

Data set [3] concerns MaTu human mammary carcinoma xenograft. As to conditions: MaTu xenograft; 30 mg/kg immunoconjugate; i.v. Q4Dx3. As for the experimental part:
Anti-MN antibodies were conjugated to cytotoxic small molecules using protocols that are known in the art (e.g., Liu, et al., Proc. Natl. Acad. Sci. 93:8618-8623, 1996). Human mammary xenograft, MaTu cells were maintained as adherent cultures in RPMI supplemented with 10% FBS. Ncr nude mice (8-12 weeks of age) were inoculated subcutaneously in the right flank with 5×10^6 cells in 0.1 mL of 80% matrigel/20% HBSS. When tumors reached an average size of ˜180 mg (6 days), treatment was initiated. Monoclonal antibodies conjugated to cytotoxic small molecules were administered i.v. once every four days (Q4Dx3) at a dose of 10 mg/kg. […] The length and width of each tumor was measured by using an electronic caliper 2-3 times per week and tumor weights (mg) were calculated based on the formula of [length (mm)×width (mm)^2]/2. […] Tumor growth inhibition (TGI) was calculated as 1−T/C×100, where T=final tumor weights from a treated group, and C=final tumor weights from the control group.
The in vivo anti-tumor effect of 3ee9/MMAE was examined in 6 different human xenograft tumor models. […] The human tumor xenograft models evaluated included the MaTu human mammary carcinoma model, the HT-29 and Colo-205 human colo-rectal carcinoma (CRC) models, PC3MM2 prostate carcinoma model, the HCT-15 multi-drug resistant (P-gp) CRC model, and the MiaPaCa2 human pancreatic model. […]

Data set [4] concerns MN-expressing cells (PC3 mm2). Put plainly: Antibody internalization (Cellomics), PC3 mm2. It counts as cell-based, human.
The subject of the next data set is MN+ cells (MaTu). In words: In vitro cytotoxicity, MaTu.
The next data set deals with MN-negative cells (DLD1). In words: Antibody internalization (Cellomics), DLD1. It counts as cell-based.

B1: 5aa3: anti-MN antibody; CDRs SEQ ID NOS: 81, 83, 85, 104, 105, and 106 (antibody, V domains shown)
VH: QVELVQSGAEVKKPGESLKISCKGSGYSFTGYISWVRQAPGKGLEWMGIIYPGDSYTNYSPSFQGQVTISADKSISTAYLQWSSLKASDTAMYYCARYSGPNWDVMDSWGQGTLVTVSS
VL: DIVLTQPPSVSGAPGQRVTISCSGSSSNIGSYYVNWYQQLPGTAPKLLIYADDKRPSGVPDRFSGSKSGTSASLAITGLQSEDEADYYCQSYDSTKDDSVFGGGTKLTVL
As for B1, the “co-immunoprecipitated proteins (specificity)” value with MN is “co-immunoprecipitated several other proteins in addition to MN”.

B2: 1aa1 immunoconjugate (conjugate)
VH: QVELVQSGAEVKKPGASVKVSCKASGYTFTTNYMHWVRQAPGQGLEWMGIINPHNGSTSYAQKFQGRVTMTRDTSISTAYMELSSLRSEDTAVYYCARGRYFLMDVWGQGTLVTVSS
VL: DIQMTQSPSSLSASVGDRVTITCRASQNILSYLNWYQQKPGKAPKLLIYAASSLQSGVPSRFSGSGSGTDFTLTISSLQPEDFAVYYCQQYGSVPTFGQGTKVEIK
With B2, the cytotoxicity result in [1] is recorded as “selectively cytotoxic for MN+ cells”. The entries for the “cell binding by FACS” value with MN-negative DLD cells and in the data set on MN+ (PC3 mm2) cells were “not to MN− cells” and “exhibited binding to MN+ cells”, respectively.

B3: 1e4: anti-MN monoclonal IgG1; CDRs SEQ ID NOS: 59, 65, 72, 107, 109, and 111 (antibody, V domains shown)
VH: ELVESGGGLVQPGGSLRLSCAASGFTFSNNAMNWVRQAPGKGLEWVSGISYDSSKTYYADSVKGRFTISRDNSKNTLYLQMNSLRAEDTAVYYCARLTYTGAYRWGQGTLVTVSS
VL: DIELTQPPSVSVAPGQTARISCSGDNLGSYYVHWYQQKPGQAPVLVIYDDNNRPSGIPERFSGSNSGNTATLTISGTQAEDEADYYCQSYDFGKVVFGGGTKLTVL
Turning to B3, the “inhibition of cell adhesion” value in [2] was “inhibits cell adhesion”. In addition, the anti-tumor effect result in data set [3] is listed as “no effect”.

B4: 1E4 immunoconjugate (conjugate)
VH: QVELVESGGGLVQPGGSLRLSCAASGFTFSNNAMNWVRQAPGKGLEWVSGISYDSSKTYYADSVKGRFTISRDNSKNTLYLQMNSLRAEDTAVYYCARLTYTGAYRWGQGTLVTVSS
VL: B3 VL
On to B4, for which the internalization entry is “internalized by MN+ cells (PC3 mm2)” in data set [4] and “not by MN− (DLD1) cells” in the data set on MN-negative cells (DLD1). The cytotoxicity result (in the data set on MN+ cells (MaTu); in data set [1]) was “selectively cytotoxic for MN+ cells” throughout. For the same molecule, the anti-tumor effect entry in data set [3] is listed as “significant anti-tumor effect”. Besides, the “cell binding by FACS” value in the data set with MN-negative DLD cells is “not to MN− cells”; with MN+ (PC3 mm2) cells, “exhibited binding to MN+ cells”.
